Experiments:
[1] = target: EGFP-mOrange fusion (Aequorea victoria / Discosoma sp. (engineered)?) (UniProt P42212); conditions: fluorescence imaging of halted RNA clusters on Illumina GAIIx; 1xPBS, 5 mM MgCl2, 0.01% Tween-20, room temp; published 5.1 nM
[2] = test system: EGFP (Aequorea victoria (engineered)?); conditions: CITED Shui et al. 2012; p76 states 5 and 15 nM by ITC and EMSA respectively; cited from earlier work

Substance: GFP aptamer (canonical, GFPapt)
- Kd [1]: 6 nM
- Kd [2]: 5.1 nM
